# B1: MC1 (masked mAb1 comprising MM1 and CL1) (antibody, human IgG2, kappa)
# heavy: QVQLVQSGAEVKKPGASVKVSCKASGYTFTGKYMHWVRQAPGQGLEWMGWINPDSGGTNYAQKFQGRVTMTRDTSIATAYMELNRLRSDDTAVYYCARDQPLGYCTNGVCSYFDYWGQGTLVTVSSASTKGPSVFPLAPCSRSTSESTAALGCLVKDYFPEPVTVSWNSGALTSGVHTFPAVLQSSGLYSLSSVVTVPSSNFGTQTYTCNVDHKPSNTKVDKTVERKCCVECPPCPAPPVAGPSVFLFPPKPKDTLMISRTPEVTCVVVDVSHEDPEVQFNWYVDGVEVHNAKTKPREEQFNSTFRVVSVLTVVHQDWLNGKEYKCKVSNKGLPAPIEKTISKTKGQPREPQVYTLPPSREEMTKNQVSLTCLVKGFYPSDIAVEWESNGQPENNYKTTPPMLDSDGSFFLYSKLTVDKSRWQQGNVFSCSVMHEALHNHYTQKSLSLSPGK
# light: EDEPGIRCYYNDDTCQYGGGPLGLAGSGGSDIQMTQSPSSVSASVGDRVTITCRASQGIYSWLAWYQQKPGKAPNLLIYTASTLQSGVPSRFSGSGSGTDFTLTISSLQPEDFATYYCQQANIFPLTFGGGTKVEIKRTVAAPSVFIFPPSDEQLKSGTASVVCLLNNFYPREAKVQWKVDNALQSGNSQESVTEQDSKDSTYSLSSTLTLSKADYEKHKVYACEVTHQGLSSPVTKSFNRGEC
# notes: Conditionally-active (masked) antibody
# B2: MMP9-activated (MC1/MC2) (antibody, not shown: small tags and cut ends)
# heavy: B1 heavy
# light: DIQMTQSPSSVSASVGDRVTITCRASQGIYSWLAWYQQKPGKAPNLLIYTASTLQSGVPSRFSGSGSGTDFTLTISSLQPEDFATYYCQQANIFPLTFGGGTKVEIKRTVAAPSVFIFPPSDEQLKSGTASVVCLLNNFYPREAKVQWKVDNALQSGNSQESVTEQDSKDSTYSLSSTLTLSKADYEKHKVYACEVTHQGLSSPVTKSFNRGEC
# B3: MC4 (masked mAb1 comprising MM2 and CL2) (antibody, human IgG2, kappa)
# heavy: B1 heavy
# light: EVGSYYVCPVRFQYFCEESGRSAGGGGPLGLAGSGGSDIQMTQSPSSVSASVGDRVTITCRASQGIYSWLAWYQQKPGKAPNLLIYTASTLQSGVPSRFSGSGSGTDFTLTISSLQPEDFATYYCQQANIFPLTFGGGTKVEIKRTVAAPSVFIFPPSDEQLKSGTASVVCLLNNFYPREAKVQWKVDNALQSGNSQESVTEQDSKDSTYSLSSTLTLSKADYEKHKVYACEVTHQGLSSPVTKSFNRGEC
# notes: as for B1
# B4: MC3 (masked mAb1 comprising MM1 and CL2) (antibody, human IgG2, kappa)
# heavy: B1 heavy
# light: EDEPGIRCYYNDDTCQYSGRSAGGGGPLGLAGSGGSDIQMTQSPSSVSASVGDRVTITCRASQGIYSWLAWYQQKPGKAPNLLIYTASTLQSGVPSRFSGSGSGTDFTLTISSLQPEDFATYYCQQANIFPLTFGGGTKVEIKRTVAAPSVFIFPPSDEQLKSGTASVVCLLNNFYPREAKVQWKVDNALQSGNSQESVTEQDSKDSTYSLSSTLTLSKADYEKHKVYACEVTHQGLSSPVTKSFNRGEC
# notes: as for B1
# B5: uPA-activated (MC3/MC4) (antibody, not shown: small tags and cut ends)
# heavy: B1 heavy
# light: B2 light
# notes: Masked compound with CL2 (MC3 or MC4, printed 'MC3/MC4') after cleavage of the masking moiety by recombinant human uPA
# B6: MC2 (masked mAb1 comprising MM2 and CL1) (antibody, human IgG2, kappa)
# heavy: B1 heavy
# light: EVGSYYVCPVRFQYFCEEGGGPLGLAGSGGSDIQMTQSPSSVSASVGDRVTITCRASQGIYSWLAWYQQKPGKAPNLLIYTASTLQSGVPSRFSGSGSGTDFTLTISSLQPEDFATYYCQQANIFPLTFGGGTKVEIKRTVAAPSVFIFPPSDEQLKSGTASVVCLLNNFYPREAKVQWKVDNALQSGNSQESVTEQDSKDSTYSLSSTLTLSKADYEKHKVYACEVTHQGLSSPVTKSFNRGEC
# notes: as for B1
# B7: mAb4 (Y32R) (antibody, human IgG2, kappa, V domains shown)
# VH: QVQLVQSGAEVKKPGASVKVSCKASGYTFTGRYMHWVRQAPGQGLEWMGWINPDSGGTNYAQKFQGRVTMTRDTSISTAYMELNRLRSDDTAVYYCARDQPLGYCTNGVCSYFDYWGQGTLVTVSS
# VL: DIQMTQSPSSVSASVGDRVTITCRASQGIYSWLAWYQQKPGKAPNLLIYTASTLQSGVPSRFSGSGSGTDFTLTISSLQPEDFATYYCQQANIFPLTFGGGTKVEIKR
# notes: Mutant of AbC1 with the same constant regions (IgG2)
# What was measured:
# human CD40 on cells [1] = target: T1, human CD40 on cells (human, UniProt P25942 21-277); assay: flow cytometry on U-2 OS/NFκB cells
# T1 construct: also called hCD40
# T1 sequence (P25942 21-277 limits assumed): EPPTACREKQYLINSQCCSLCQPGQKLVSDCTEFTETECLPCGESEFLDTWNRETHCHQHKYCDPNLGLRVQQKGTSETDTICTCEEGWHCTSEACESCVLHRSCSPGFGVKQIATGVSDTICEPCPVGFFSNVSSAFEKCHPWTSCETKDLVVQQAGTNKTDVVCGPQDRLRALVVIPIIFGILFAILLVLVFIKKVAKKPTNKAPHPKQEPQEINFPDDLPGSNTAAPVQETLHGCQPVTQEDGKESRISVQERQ
# Procedure: (§1) Briefly, cultured U-2 OS/NFκB cells were seeded in 96-well plates at 1.0×10⁵ cells/well and incubated with serially-diluted test antibodies for 60 minutes at 4° C. in 2% FBS/dPBS buffer. The cells were then washed twice with dPBS and further incubated with secondary allophycocyanin (APC)-conjugated AffiniPure F(ab′)₂ fragment donkey anti-human IgG (H+L) antibody (Jackson ImmunoResearch, Ref. 709-136-149) (1:500) for 30 minutes at 4° C. Finally, the cells were washed twice with dPBS and suspended in FACS buffer for flow cytometry analysis. MFI values vs concentrations were analyzed by FlowJo and data were further fitted with four-parameter non-linear regression to get EC₅₀ values by GraphPad Prism software.
# human CD40 on cells [2] = target: T1, human CD40 on cells; assay: cell-based or functional assay
# human CD40 on cells [3] = target: T1, human CD40 on cells; assay: flow cytometry on U-2 OS/NFκB cells; EC50 relative to mAb1
# Procedure: as §1
# human CD40 on cells [4] = target: T1, human CD40 on cells; assay: cell-based or functional assay; remark: listed apart in the source
# human CD40 on cells [5] = target: T1, human CD40 on cells; assay: cell-based or functional assay; remark: listed apart in the source
# human CD40 on cells [6] = target: T1, human CD40 on cells; assay: flow cytometry on Raji cells
# Procedure: as §1, with “Raji” for “cultured U-2 OS/NFκB”
# human CD40 on cells [7] = target: T1, human CD40 on cells; assay: flow cytometry on Raji cells; EC50 relative to mAb1
# Procedure: as §1, with “Raji” for “cultured U-2 OS/NFκB”
# human CD40 on cells [8] = target: T1, human CD40 on cells; assay: cell-based or functional assay; remark: listed apart in the source
# human CD40 on cells [9] = target: T1, human CD40 on cells; assay: flow cytometry on human primary naive B-cells, 1 h at 4 °C, AF488-conjugated secondary antibody (MFI)
# Procedure: Naive B-cell were plated at a density of […] cells per well in 96-well plates and incubated with CD40 agonists, hexameric ligand and anti-CD40 antibodies, for 1 hour at 4° C.
Binder,EC50 (human CD40 on cells [1]) [nM],"EC50, luciferase reporter assay in U-2 OS/NFκB cells (human CD40 on cells [2]) [nM]","Relative masking efficacy, luciferase reporter assay in U-2 OS/NFκB cells (human CD40 on cells [2]) [fold]",Relative masking efficacy (human CD40 on cells [3]) [fold],"EC50, CD86 expression, primary human B-cell activation assay (human CD40 on cells [4]) [nM]","Relative masking efficacy, CD86 expression, primary human B-cell activation assay (human CD40 on cells [4]) [fold]","EC50, CD83 expression, B-cells of hCD40 KI mice (human CD40 on cells [5]) [nM]","EC50, CD86 expression, B-cells of hCD40 KI mice (human CD40 on cells [5]) [nM]","Relative masking efficacy, CD83 expression, B-cells of hCD40 KI mice (human CD40 on cells [5]) [fold]","Relative masking efficacy, CD86 expression, B-cells of hCD40 KI mice (human CD40 on cells [5]) [fold]",EC50 (human CD40 on cells [6]) [nM],Relative masking efficacy (human CD40 on cells [7]) [fold],"EC50, CD83 expression, MoDC maturation assay (human CD40 on cells [8]) [nM]","EC50, IL-8 release, MoDC maturation assay (human CD40 on cells [8]) [nM]",binding result (human CD40 on cells [9])
B1,330,179,753,220,40.3,231,6.7,3.57,131,115,476,355,56.5,19.5,
B2,1.94,0.261,1.1,1.3,0.114,0.65,,,,,1.46,1.1,,,
B3,176,45.8,193,118,14.7,84,1.24,1.05,24.3,33.8,143,107,17.2,12.2,
B4,197,108,457,131,27.9,158,2.84,2.01,55.7,64.9,388,289,27.4,13.3,
B5,2.52,0.362,1.5,1.7,0.134,0.77,,,,,2.01,1.5,,,
B6,317,113,477,211,28.5,176,2.31,1.46,45.2,47.2,488,364,33.1,15.1,
B7,,,,,,,,,,,,,,,binds
